Source: IntAct's records for PubMed 31412244

B1: Autophagy-related protein 2 homolog A (Homo sapiens), Q2TAZ0 (parent)
chain: MSRWLWPWSNCVKERVCRYLLHHYLGHFFQEHLSLDQLSLDLYKGSVALRDIHLEIWSVNEVLESMESPLELVEGFVGSIEVAVPWAALLTDHCTVRVSGLQLTLQPRRGPAPGAADSQSWASCMTTSLQLAQECLRDGLPEPSEPPQPLEGLEMFAQTIETVLRRIKVTFLDTVVRVEHSPGDGERGVAVEVRVQRLEYCDEAVRDPSQAPPVDVHQPPAFLHKLLQLAGVRLHYEELPAQEEPPEPPLQIGSCSGYMELMVKLKQNEAFPGPKLEVAGQLGSLHLLLTPRQLQQLQELLSAVSLTDHEGLADKLNKSRPLGAEDLWLIEQDLNQQLQAGAVAEPLSPDPLTNPLLNLDNTDLFFSMAGLTSSVASALSELSLSDVDLASSVRSDMASRRLSAQAHPAGKMAPNPLLDTMRPDSLLKMTLGGVTLTLLQTSAPSSGPPDLATHFFTEFDATKDGPFGSRDFHHLRPRFQRACPCSHVRLTGTAVQLSWELRTGSRGRRTTSMEVHFGQLEVLECLWPRGTSEPEYTEILTFPGTLGSQASARPCAHLRHTQILRRVPKSRPRRSVACHCHSELALDLANFQADVELGALDRLAALLRLATVPAEPPAGLLTEPLPAMEQQTVFRLSAPRATLRLRFPIADLRPEPDPWAGQAVRAEQLRLELSEPQFRSELSSGPGPPVPTHLELTCSDLHGIYEDGGKPPVPCLRVSKALDPKSTGRKYFLPQVVVTVNPQSSSTQWEVAPEKGEELELSVESPCELREPEPSPFSSKRTMYETEEMVIPGDPEEMRTFQSRTLALSRCSLEVILPSVHIFLPSKEVYESIYNRINNDLLMWEPADLLPTPDPAAQPSGFPGPSGFWHDSFKMCKSAFKLANCFDLTPDSDSDDEDAHFFSVGASGGPQAAAPEAPSLHLQSTFSTLVTVLKGRITALCETKDEGGKRLEAVHGELVLDMEHGTLFSVSQYCGQPGLGYFCLEAEKATLYHRAAVDDYPLPSHLDLPSFAPPAQLAPTIYPSEEGVTERGASGRKGQGRGPHMLSTAVRIHLDPHKNVKEFLVTLRLHKATLRHYMALPEQSWHSQLLEFLDVLDDPVLGYLPPTVITILHTHLFSCSVDYRPLYLPVRVLITAETFTLSSNIIMDTSTFLLRFILDDSALYLSDKCEVETLDLRRDYVCVLDVDLLELVIKTWKGSTEGKLSQPLFELRCSNNVVHVHSCADSCALLVNLLQYVMSTGDLHPPPRPPSPTEIAGQKLSESPASLPSCPPVETALINQRDLADALLDTERSLRELAQPSGGHLPQASPISVYLFPGERSGAPPPSPPVGGPAGSLGSCSEEKEDEREEEGDGDTLDSDEFCILDAPGLGIPPRDGEPVVTQLHPGPIVVRDGYFSRPIGSTDLLRAPAHFPVPSTRVVLREVSLVWHLYGGRDFGPHPGHRARTGLSGPRSSPSRCSGPNRPQNSWRTQGGSGRQHHVLMEIQLSKVSFQHEVYPAEPATGPAAPSQELEERPLSRQVFIVQELEVRDRLASSQINKFLYLHTSERMPRRAHSNMLTIKALHVAPTTNLGGPECCLRVSLMPLRLNVDQDALFFLKDFFTSLVAGINPVVPGETSAEARPETRAQPSSPLEGQAEGVETTGSQEAPGGGHSPSPPDQQPIYFREFRFTSEVPIWLDYHGKHVTMDQVGTFAGLLIGLAQLNCSELKLKRLCCRHGLLGVDKVLGYALNEWLQDIRKNQLPGLLGGVGPMHSVVQLFQGFRDLLWLPIEQYRKDGRLMRGLQRGAASFGSSTASAALELSNRLVQAIQATAETVYDILSPAAPVSRSLQDKRSARRLRRGQQPADLREGVAKAYDTVREGILDTAQTICDVASRGHEQKGLTGAVGGVIRQLPPTVVKPLILATEATSSLLGGMRNQIVPDAHKDHALKWRSDSAQD
partner: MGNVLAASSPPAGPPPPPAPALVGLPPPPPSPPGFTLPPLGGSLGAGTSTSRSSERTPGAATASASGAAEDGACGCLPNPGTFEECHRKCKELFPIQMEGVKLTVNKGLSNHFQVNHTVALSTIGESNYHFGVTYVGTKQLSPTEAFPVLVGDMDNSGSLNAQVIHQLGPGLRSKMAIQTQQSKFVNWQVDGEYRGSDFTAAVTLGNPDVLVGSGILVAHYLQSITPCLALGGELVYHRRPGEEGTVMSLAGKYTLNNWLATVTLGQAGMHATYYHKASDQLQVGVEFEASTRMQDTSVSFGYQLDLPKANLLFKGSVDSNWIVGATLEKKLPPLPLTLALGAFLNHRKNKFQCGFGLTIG
B2: Autophagy-related protein 2 homolog A (Homo sapiens), Q2TAZ0 (parent)
chain: B1 chain
partner: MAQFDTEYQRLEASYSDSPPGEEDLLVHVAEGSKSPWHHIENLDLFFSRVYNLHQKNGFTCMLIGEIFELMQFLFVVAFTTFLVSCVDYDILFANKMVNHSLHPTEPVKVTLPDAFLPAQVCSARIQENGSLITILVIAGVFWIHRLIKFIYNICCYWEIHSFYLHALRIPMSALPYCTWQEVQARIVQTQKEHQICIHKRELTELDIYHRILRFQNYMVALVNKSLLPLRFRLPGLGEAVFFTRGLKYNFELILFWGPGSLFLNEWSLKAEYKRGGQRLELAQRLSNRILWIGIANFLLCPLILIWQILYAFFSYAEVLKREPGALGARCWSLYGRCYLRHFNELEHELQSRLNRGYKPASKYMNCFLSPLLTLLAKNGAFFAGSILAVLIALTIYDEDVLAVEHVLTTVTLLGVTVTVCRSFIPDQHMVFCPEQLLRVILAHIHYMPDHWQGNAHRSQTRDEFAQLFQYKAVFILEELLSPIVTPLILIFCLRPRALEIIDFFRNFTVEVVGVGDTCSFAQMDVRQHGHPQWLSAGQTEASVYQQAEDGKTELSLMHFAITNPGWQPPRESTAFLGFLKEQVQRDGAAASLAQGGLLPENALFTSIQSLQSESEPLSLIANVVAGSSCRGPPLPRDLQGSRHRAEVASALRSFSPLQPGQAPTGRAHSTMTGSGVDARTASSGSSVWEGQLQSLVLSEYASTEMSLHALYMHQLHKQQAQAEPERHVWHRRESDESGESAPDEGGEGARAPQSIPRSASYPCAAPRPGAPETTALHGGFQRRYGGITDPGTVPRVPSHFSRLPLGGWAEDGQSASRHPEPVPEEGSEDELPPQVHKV

Variants of: B1
Conditions: with tom40_human TOMM40, O96008

Row | effect of a mutation on the interaction | Variant
1 | decreasing interaction strength | R1777A;R1780A;R1784A;L1798A;L1800A;L1804A
2 | decreasing interaction strength | R1777A;R1780A;R1784A
3 | disrupting interaction strength | L1798A;L1800A;L1804A

Variants of: B2
Conditions: with atg9a_human ATG9A

Row | effect of a mutation on the interaction | Variant
4 | disrupting interaction strength | Y1395A;F1396A;S1397A
